Experiments:
vp26a_mouse Vps26a = vp26a_mouse Vps26a (UniProt P40336)
vps29_mouse Vps29 = vps29_mouse Vps29 (UniProt Q9QZ88)

effect of a mutation on the interaction (vp26a_mouse Vps26a): with no effect
effect of a mutation on the interaction (vps29_mouse Vps29): with no effect
Substance: Vacuolar protein sorting-associated protein 35 (Homo sapiens) (from UniProt Q96QK1) D620N

Reference: IntAct's records for PubMed 24152121
